Data as given in patent publication US20230357341A1.
Values belong to the molecule of their own block, whether it stands above or below them.

Legend:
[1] = target: T1, cat EPOR expressed on Ba/F3 cells (BaF3/cat EPOR) (cat)
T1 sequence: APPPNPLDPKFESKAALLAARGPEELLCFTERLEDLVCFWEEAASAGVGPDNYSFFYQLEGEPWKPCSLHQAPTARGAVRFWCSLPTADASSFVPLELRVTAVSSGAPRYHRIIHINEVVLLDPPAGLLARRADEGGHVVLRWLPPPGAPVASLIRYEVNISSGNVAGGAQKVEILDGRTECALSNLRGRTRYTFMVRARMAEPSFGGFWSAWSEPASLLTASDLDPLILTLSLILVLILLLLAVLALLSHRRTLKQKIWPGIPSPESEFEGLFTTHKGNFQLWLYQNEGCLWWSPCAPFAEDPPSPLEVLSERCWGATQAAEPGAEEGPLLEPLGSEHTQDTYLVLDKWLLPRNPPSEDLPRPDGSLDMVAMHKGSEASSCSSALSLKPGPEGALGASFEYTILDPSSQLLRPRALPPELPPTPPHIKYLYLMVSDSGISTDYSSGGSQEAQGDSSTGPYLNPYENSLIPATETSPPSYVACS

[2] = target: T2, mouse EPOR expressed on Ba/F3 cells (BaF3/mouse EPOR) (mouse) (UniProt P14753)
T2 sequence: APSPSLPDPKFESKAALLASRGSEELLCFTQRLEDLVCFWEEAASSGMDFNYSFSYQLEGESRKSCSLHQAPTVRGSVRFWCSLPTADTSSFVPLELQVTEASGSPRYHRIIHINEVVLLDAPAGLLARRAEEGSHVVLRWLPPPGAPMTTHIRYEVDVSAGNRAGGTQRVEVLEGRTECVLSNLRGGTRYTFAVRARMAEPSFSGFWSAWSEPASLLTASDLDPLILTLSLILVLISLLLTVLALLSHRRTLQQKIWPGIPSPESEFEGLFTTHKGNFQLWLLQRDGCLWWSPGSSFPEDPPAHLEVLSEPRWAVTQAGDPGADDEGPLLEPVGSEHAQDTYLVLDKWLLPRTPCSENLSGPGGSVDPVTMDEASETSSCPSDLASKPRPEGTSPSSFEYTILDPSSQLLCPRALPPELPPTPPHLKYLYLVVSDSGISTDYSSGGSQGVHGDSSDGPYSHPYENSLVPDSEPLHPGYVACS

EC50 (read off the curve), BaF3/cat EPOR cell proliferation [1]: 0.02 nM
Molecule: human EPO (PeproTech) (from UniProt P01588 28-193) (ligand)

EC50 (read off the curve), BaF3/cat EPOR cell proliferation [1]: 0.02 nM
EC50 (read off the curve), BaF3/mouse EPOR cell proliferation [2]: 0.05 nM
B2: cat EPO-Fc (C165R cat EPO-siCFV3) of Examples 12 and 13 (Fc fusion, not shown: small tags and cut ends)
chain: APPRLICDSRVLERYILEAREAENVTMGCAEGCSFSENITVPDTKVNFYTWKRMDVGQQAVEVWQGLALLSEAILRGQALLANSSQPSETLQLHVDKAVSSLRSLTSLLRALGAQKEATSLPEATSAAPLRTFTVDTLRKLFRIYSNFLRGKLTLYTGEACRRGDRPPEMRRGPKIFIFPPKPKDTLSISRTPEVTCLVVDLGPDDSDVQITWFVDNTQVYTAKTSPREEQFNSTYRVVSVLPILHQDWLKGKEFKCKVNSKSLPSPIERTISKAKGQPHEPQVYVLPPAQEELSRNKVSVTCLIKSFHPPDIAVEWEITGQPEPENNYRTTPPQLDSDGTYFVYSKLSVDRSHWQRGNTYTCSVLHEALHAHHTRKELTQSPGK

Continued, molecule first:

Molecule: wild-type cat EPO-His (fusion protein of cat EPO and His tag) (from UniProt P33708 27-192) (ligand)
EC50 (read off the curve), BaF3/cat EPOR cell proliferation [1]: 0.03 nM
EC50 (read off the curve), BaF3/mouse EPOR cell proliferation [2]: 0.04 nM

B1: wild-type mouse EPO-His (fusion protein of mouse EPO and His tag) (ligand)
chain: APPRLICDSRVLERYILEAKEAENVTMGCAEGPRLSENITVPDTKVNFYAWKRMEVEEQAIEVWQGLSLLSEAILQAQALLANSSQPPETLQLHIDKAISGLRSLTSLLRVLGAQKELMSPPDTTPPAPLRTLTVDTFCKLFRVYANFLRGKLKLYTGEVCRRGDRGAAHHHHHHHHH
EC50 (read off the curve), BaF3/mouse EPOR cell proliferation [2]: 0.05 nM
